Legend:
[1] = target: α-synuclein (Homo sapiens, UniProt P37840); conditions: Martin et al., 2018; cited from earlier work
[2] = target: T1, AtxQ78 (Homo sapiens, UniProt P54252, INS305QQQQQQQQQQQQQQQQQQQQQQQQQQQQQQQQQQQQQQQQQQQQQQQQQQQQQQQQQQQQQQQQ); assay: Chemical crosslinking (BS3) and mass spectrometry of NAC-AtxQ78 complexes; type: binding; conditions: NAC and AtxQ78 1:1, BS3 crosslinker, LC-MS
T1 construct: full-length Ataxin-3 harboring a stretch of 78 glutamines (AtxQ78); made in house
Procedure: For crosslinking AtxQ78 was buffer exchanged into 10 mM sodium phosphate (pH 7.2) and added to NAC at a 1:1 ratio (20 μM NAC+20 μM AtxQ78). A 1:1 mixture of BS^3-d^0 and BS^3-d^4 was added to the proteins at 20× and 50× molar excess and the reaction allowed to proceed at room temperature for 1 hour before quenching with the addition of 50 mM Tris-Cl (pH 7.5). Samples were diluted with 2× loading buffer and separated on Tris-tricine gels followed by staining with InstantBlue (Expedeon).
Gel pieces containing the crosslinked complexes were washed with 25 mM ammonium bicarbonate (pH 7.8) for 1 h with shaking. The solution was removed and the pieces destained three times with 25 mM ammonium bicarbonate in 60% acetonitrile. Gel pieces were dehydrated with 100% acetonitrile for 10 min and left to air-dry in a laminar flowhood for 1 h. Rehydration of the gel pieces was achieved by adding 0.1 mg/ml trypsin solution and incubating the samples on ice for 30 min. Excess trypsin was removed and the samples were incubated at 37° C. and 1000 rpm overnight. Peptides were extracted from the gel using 3 washes with 60% acetonitrile/5% formic acid. The extracts were pooled and concentrated using a SpeedVac before being analyzed using a nanoACQUITY LC-system coupled to a Synapt HDMS G2Si mass spectrometer. […]

[3] = system: PolyQ35::YFP; assay: PolyQ35::YFP aggregation in C. elegans overexpressing NAC (fluorescence microscopy, SDD-AGE); type: in vivo; conditions: day 3 of adulthood
Excerpt: NAC is a major ribosome-binding factor interacting broadly with nascent chains (del Alamo et al., 2011). However, its assumed chaperone function is poorly investigated. […] Although loss of NAC causes pleiotropic defects in C. elegans (Gamerdinger et al., 2015), this finding raises the possibility that NAC directly exerts a chaperone function on aggregation-prone proteins. In this case, overexpression of NAC should prevent aggregation of PolyQ proteins in vivo. Therefore, we used a C. elegans strain expressing 35 consecutive glutamine residues fused to YFP (PolyQ35::YFP) in body wall muscle cells. This PolyQ length is close to the aggregation threshold in C. elegans muscle cells, leading to progressive, age-dependent aggregation starting at day 2 of adulthood (Morley et al., 2002). We generated transgenic animals that overexpress FLAG-tagged α- and βNAC under the control of the muscle-specific myo-3 promoter. PolyQ aggregation was assessed at day 3 of adulthood by fluorescence microscopy as well as semi-denaturing detergent agarose gel electrophoresis (SDD-AGE), which detects high molecular weight oligomeric PolyQ species (Halfmann and Lindquist, 2008). […] This is evident by magnification of the head regions showing diffuse PolyQ35::YFP and less punctate PolyQ35::YFP structures when NAC was overexpressed (FIG. 1A, head region images). […] To directly test the potential chaperone function of NAC, we employed a peptide composed of 51 consecutive glutamines (PolyQ51) as a model substrate in a well-established in vitro aggregation assay. We initiated aggregation of PolyQ51 by cleaving a solubilizing GST tag with TEV protease and detected aggregates over time using a filter trap assay.
Worms were cultured according to standard techniques with E. coli OP50 as food source (Brenner, 1974). Transgenic strains were generated using standard microinjection protocols (Mello and Fire, 1995). […]

T1 sequence (P54252 with tags, fused parts or gaps with the stated changes): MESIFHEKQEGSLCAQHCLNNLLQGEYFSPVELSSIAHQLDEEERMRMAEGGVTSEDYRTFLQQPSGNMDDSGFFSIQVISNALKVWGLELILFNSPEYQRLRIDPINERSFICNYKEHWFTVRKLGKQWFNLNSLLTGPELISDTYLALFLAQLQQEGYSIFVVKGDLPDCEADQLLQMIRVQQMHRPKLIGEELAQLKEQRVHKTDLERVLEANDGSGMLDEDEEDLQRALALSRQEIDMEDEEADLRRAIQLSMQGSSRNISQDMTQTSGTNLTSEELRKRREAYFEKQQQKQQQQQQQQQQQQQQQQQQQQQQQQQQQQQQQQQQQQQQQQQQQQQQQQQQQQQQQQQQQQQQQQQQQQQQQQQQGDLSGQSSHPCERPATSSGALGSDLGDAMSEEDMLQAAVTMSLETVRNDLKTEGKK

B1: NAC: nascent polypeptide-associated complex, heterodimer of αNAC and βNAC; species not given at the place (C. elegans icd-1/icd-2 when overexpressed in worms) (protein)
chain 1: MTGSTETRQKEVKEPQVDVSDDSDNEAVEQELTEEQRRVAEAAGLGDHIDKQAKQSRSEKKARKLFSKLGLKQVTGVSRVCIRKSKNILFVINKPDVFKSPGSDTYIIFGEAKIEDLTQHAQMSAIENLKPTREAPQLKTVEEDENEDVEEDSTGIEEKDIELVISQANTTRNKAIRALKEADNDIVNAIMSLTM
chain 2: MMDSKAIAERIKKLQAQQEHVRIGGKGTPRRKKKVIHKTAAADDKKLQSNLKKLSVTNIPGIEEVNMIKDDGTVIHFNNPKVQTSVPANTFSVTGSADNKQITEMLPGILNQLGPESLTHLKKLANNVTKLGPDGKGEDEDVPELVGDFDAASKNETKADEQ
aggregation of α-synuclein [1]: suppresses aggregation
NAC regions crosslinked to AtxQ78 [2]: predominantly crosslinked to AtxQ78 via the N-terminal regions of αNAC and βNAC
insoluble high molecular weight PolyQ35::YFP aggregate species ([3]; NAC overexpressing worms): less insoluble high molecular weight aggregate species
PolyQ35::YFP aggregation ([3]; overexpressed in body wall muscle cells (myo-3 promoter), fluorescence microscopy): effectively suppressed PolyQ35::YFP aggregation

Source: US12338268B2, “Compositions and methods for treating protein aggregation-associated diseases” (The Board of Trustees of the Leland Stanford Junior …, priority 2019, dated 2025)
